Molecular target: human TNFR1 on the cellular surface of HeLa, HT1080 and Kym-1 cells (human) (UniProt P19438)
Experiment: cell-based or functional assay

human TNFR1 on the cellular surface of HeLa, HT1080 and Kym-1 cells (human), sequence (P19438 30-455 limits assumed): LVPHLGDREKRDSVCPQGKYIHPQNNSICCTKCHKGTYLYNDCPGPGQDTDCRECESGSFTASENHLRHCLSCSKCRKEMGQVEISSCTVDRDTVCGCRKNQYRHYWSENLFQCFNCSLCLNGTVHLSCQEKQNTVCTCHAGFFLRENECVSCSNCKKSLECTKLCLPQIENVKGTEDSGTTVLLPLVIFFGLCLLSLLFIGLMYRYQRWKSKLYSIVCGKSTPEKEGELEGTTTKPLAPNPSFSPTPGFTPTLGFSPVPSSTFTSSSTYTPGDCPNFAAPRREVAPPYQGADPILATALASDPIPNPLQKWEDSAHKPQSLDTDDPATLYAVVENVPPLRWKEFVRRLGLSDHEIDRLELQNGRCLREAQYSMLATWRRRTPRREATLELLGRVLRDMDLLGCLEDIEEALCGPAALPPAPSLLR

- IC50, IL-6 [nM] (IL-6 release from HeLa cells, 0.1 nM TNF): 165 nM
- IC50, IL-8 [nM] (IL-8 release from HT1080 cells, 0.1 nM TNF): 84.1 nM
Substance: ATROSAB (antibody)
- IC50, Cell death induction [nM] (Kym-1 cells, TNF-induced): 64.4 nM

From patent US20200299396A1
